Test system: T1, QseB (rQseB) (Glaesserella parasuis serovar 5 strain CF7066), ORF:6fe33d28
T1 sequence: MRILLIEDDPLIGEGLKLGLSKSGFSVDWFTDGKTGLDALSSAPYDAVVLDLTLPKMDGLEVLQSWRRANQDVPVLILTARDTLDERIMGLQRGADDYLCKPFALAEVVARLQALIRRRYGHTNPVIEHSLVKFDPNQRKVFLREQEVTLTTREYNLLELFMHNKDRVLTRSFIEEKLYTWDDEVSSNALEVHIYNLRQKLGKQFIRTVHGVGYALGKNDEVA
Test: EMSA
Conditions: 50 mM Tris, 10 mM MgCl2, 0.1 mM DTT

| Sequence | binding |
| --- | --- |
| AAATTGCTCCTAGTGTTTATTAGTAAAAGCATTATTGCTTTGTTGAGTGTATTAAAACAGAGAAATCTTAAGAAAGTCTTAAGATAAAAAAATTTATTTTTAGACAAAATCTAATAAAAAAGCGGCAAGATTCGTAAATCCTACCGCTTAGATCACATTATGAAAAAATTAGAATCTATAGTTTGCCCCAATAA (double strand) [qseB promoter (Cy5.5-qseB)] | binds |
| GAAGAACTTACGCTGAGTTGTTTAAATAGCTCGTTGAGCAAGGTGAATCCTCAGAAGAGTATGTCGAAGTAATGGGGCATATGCAAGTAGAAATAGATTTAGAAATGATCAAAACCTGAATCTGAAATATTATTTTAAATATATAGTCTTAACTGTCTTAGGAAAAGGCAGTAGAGATAGGATGAGATAACAGT (double strand) [capD promoter (Cy5.5-capD)] | binds |

Reference: article PMC10714720
